From publication PMC3334620 come the findings set out here.

Common to all, as to conditions: 200 nM
In data set [1] the target is T1, Vhr2 (Saccharomyces cerevisiae) (UniProt P40041).
T1 sequence: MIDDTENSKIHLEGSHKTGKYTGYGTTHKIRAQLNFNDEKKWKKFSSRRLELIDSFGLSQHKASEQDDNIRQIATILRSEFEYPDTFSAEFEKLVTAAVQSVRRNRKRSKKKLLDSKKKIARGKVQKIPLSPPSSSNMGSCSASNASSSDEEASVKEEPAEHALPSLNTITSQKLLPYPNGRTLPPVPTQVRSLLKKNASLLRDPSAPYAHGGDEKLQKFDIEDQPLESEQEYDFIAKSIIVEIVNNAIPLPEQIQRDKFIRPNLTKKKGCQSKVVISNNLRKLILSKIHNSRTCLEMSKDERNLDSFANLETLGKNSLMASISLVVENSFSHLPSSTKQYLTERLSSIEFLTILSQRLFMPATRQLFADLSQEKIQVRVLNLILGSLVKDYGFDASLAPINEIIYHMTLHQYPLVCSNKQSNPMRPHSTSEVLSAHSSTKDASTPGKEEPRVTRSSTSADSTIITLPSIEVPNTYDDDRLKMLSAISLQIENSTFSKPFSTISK

In data set [2] the target is T2, Vhr1 (Saccharomyces cerevisiae) (UniProt P40522).
T2 sequence: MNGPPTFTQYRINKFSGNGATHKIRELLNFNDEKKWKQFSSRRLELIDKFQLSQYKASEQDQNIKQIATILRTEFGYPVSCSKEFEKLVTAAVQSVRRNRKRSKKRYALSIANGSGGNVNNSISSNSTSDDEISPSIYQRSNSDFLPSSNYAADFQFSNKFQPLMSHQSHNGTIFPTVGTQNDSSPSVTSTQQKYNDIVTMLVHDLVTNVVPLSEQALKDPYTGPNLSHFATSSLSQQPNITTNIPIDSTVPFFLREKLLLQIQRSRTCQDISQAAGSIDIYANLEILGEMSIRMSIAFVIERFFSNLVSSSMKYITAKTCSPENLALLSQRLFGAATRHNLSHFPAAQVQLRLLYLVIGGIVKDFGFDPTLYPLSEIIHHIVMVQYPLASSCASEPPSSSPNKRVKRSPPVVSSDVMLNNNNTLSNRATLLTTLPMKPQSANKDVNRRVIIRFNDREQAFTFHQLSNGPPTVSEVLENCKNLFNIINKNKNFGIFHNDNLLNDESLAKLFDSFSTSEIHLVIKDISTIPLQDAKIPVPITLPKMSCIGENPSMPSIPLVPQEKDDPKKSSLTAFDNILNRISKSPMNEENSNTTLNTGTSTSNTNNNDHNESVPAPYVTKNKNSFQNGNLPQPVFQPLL

Data set [3] has as its target T3, Upc2 (Saccharomyces cerevisiae) (UniProt Q12151).
T3 sequence: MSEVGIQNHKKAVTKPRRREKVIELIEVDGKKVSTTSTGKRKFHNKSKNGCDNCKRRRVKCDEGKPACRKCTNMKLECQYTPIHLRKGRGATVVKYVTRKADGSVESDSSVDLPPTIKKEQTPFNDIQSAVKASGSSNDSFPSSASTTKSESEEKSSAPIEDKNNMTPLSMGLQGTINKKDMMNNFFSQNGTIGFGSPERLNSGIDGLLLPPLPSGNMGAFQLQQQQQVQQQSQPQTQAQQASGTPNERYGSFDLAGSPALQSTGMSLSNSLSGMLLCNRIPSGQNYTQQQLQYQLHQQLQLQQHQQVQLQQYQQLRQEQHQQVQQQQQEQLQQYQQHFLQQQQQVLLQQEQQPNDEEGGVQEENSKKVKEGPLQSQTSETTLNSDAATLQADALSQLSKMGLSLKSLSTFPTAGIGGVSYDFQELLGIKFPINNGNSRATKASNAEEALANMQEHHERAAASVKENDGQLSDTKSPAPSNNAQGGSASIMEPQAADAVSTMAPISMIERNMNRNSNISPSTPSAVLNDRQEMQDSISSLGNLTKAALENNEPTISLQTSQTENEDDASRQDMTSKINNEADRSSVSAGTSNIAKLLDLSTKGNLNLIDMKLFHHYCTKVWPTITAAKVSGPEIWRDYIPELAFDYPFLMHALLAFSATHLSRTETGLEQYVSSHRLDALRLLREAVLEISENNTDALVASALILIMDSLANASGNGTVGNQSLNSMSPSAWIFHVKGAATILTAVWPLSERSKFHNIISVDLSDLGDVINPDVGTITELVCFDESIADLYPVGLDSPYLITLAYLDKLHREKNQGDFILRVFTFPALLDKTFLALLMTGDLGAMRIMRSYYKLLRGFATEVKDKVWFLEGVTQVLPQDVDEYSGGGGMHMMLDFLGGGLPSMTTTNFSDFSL

For data set [4], the target named is T4, Ecm22 (Saccharomyces cerevisiae) (UniProt Q05958).
T4 sequence: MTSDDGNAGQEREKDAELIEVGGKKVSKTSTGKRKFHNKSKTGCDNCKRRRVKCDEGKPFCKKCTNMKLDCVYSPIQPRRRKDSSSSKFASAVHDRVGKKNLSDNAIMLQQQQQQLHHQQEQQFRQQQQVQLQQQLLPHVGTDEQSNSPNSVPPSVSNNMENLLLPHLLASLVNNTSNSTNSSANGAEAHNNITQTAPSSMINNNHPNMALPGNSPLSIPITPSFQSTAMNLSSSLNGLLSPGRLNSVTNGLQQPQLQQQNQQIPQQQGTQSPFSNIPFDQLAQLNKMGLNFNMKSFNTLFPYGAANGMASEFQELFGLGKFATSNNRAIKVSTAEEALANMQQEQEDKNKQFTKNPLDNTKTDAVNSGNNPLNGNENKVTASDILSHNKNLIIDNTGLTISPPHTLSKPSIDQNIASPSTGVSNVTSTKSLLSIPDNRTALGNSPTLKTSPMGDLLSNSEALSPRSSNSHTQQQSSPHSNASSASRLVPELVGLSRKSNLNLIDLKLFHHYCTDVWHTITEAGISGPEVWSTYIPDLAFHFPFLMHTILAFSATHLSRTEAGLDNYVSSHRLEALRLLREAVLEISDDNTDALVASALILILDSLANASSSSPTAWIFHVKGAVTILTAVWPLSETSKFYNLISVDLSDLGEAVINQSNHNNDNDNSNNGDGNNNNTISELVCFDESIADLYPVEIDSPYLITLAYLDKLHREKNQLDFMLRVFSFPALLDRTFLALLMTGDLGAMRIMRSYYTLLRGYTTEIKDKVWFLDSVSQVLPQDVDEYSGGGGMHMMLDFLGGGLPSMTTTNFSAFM

With “AATGACTC (double strand) [8-mer AATGACTC]”, the binding signal (PBM E-score (-0.5 to 0.5)) in data set [1] stood at 0.495.
“AGTGACTC (double strand) [8-mer AGTGACTC]” came in with a binding signal (PBM E-score (-0.5 to 0.5)) in data set [2] of 0.481.
For “ATAAACGA (double strand) [8-mer ATAAACGA]”, in data set [3], the binding signal (PBM E-score (-0.5 to 0.5)) amounted to 0.494.
On to “ATCGTATA (double strand) [8-mer ATCGTATA]”, for which the binding signal (PBM E-score (-0.5 to 0.5)) in data set [3] stood at 0.493.
As for “ATCGTTTA (double strand) [8-mer ATCGTTTA]”, the binding signal (PBM E-score (-0.5 to 0.5)) in data set [3] was 0.495.
“ATGACTAA (double strand) [8-mer ATGACTAA]” gave a binding signal (PBM E-score (-0.5 to 0.5)) in data set [1] of 0.494.
In data set [1], “ATGACTAC (double strand) [8-mer ATGACTAC]” had a binding signal (PBM E-score (-0.5 to 0.5)) of 0.494.
In the case of “ATGACTCA (double strand) [8-mer ATGACTCA]”, the binding signal (PBM E-score (-0.5 to 0.5)) was 0.499 in data set [1] and 0.495 in data set [2].
For the sequence “ATGACTCC (double strand) [8-mer ATGACTCC]”, the figures for the binding signal (PBM E-score (-0.5 to 0.5)) in data set [1] and in data set [2] were 0.493 and 0.494, respectively.
On to “ATGAGTCA (double strand) [8-mer ATGAGTCA]”, for which the binding signal (PBM E-score (-0.5 to 0.5)) in data set [1] turned out to be 0.498; in data set [2], 0.492.
With “CATGACTC (double strand) [8-mer CATGACTC]”, the figures for the binding signal (PBM E-score (-0.5 to 0.5)) in data set [1] and in data set [2] were 0.494 and 0.485, respectively.
With “CGGAGTCA (double strand) [8-mer CGGAGTCA]”, in data set [2], the binding signal (PBM E-score (-0.5 to 0.5)) came out at 0.485.
“CGTATACG (double strand) [8-mer CGTATACG]” yielded a binding signal (PBM E-score (-0.5 to 0.5)) in data set [3] of 0.494.
As for “CTAAACGA (double strand) [8-mer CTAAACGA]”, the binding signal (PBM E-score (-0.5 to 0.5)) turned out to be 0.496 in data set [3] and 0.493 in data set [4].
For “CTATACGA (double strand) [8-mer CTATACGA]”, the binding signal (PBM E-score (-0.5 to 0.5)) in data set [3] was determined as 0.498; in data set [4] it was 0.496.
On the same counts, the results for “CTCGTATA (double strand) [8-mer CTCGTATA]” are 0.499 and 0.498.
On to “CTCGTTTA (double strand) [8-mer CTCGTTTA]”, for which the binding signal (PBM E-score (-0.5 to 0.5)) in data set [3] and in data set [4] was 0.495 throughout.
Regarding “CTGACTCA (double strand) [8-mer CTGACTCA]”, the results for the binding signal (PBM E-score (-0.5 to 0.5)) in data set [1] and in data set [2] were 0.494 and 0.49, respectively.
For “CTGAGTCA (double strand) [8-mer CTGAGTCA]” the same measures were 0.496 and 0.489.
Regarding “GAGTCACA (double strand) [8-mer GAGTCACA]”, in data set [2], the binding signal (PBM E-score (-0.5 to 0.5)) was 0.487.
Consider “GAGTCACC (double strand) [8-mer GAGTCACC]”, for which the binding signal (PBM E-score (-0.5 to 0.5)) in data set [1] was found to be 0.496; in data set [2], 0.491.
In the case of “GAGTCATA (double strand) [8-mer GAGTCATA]”, the binding signal (PBM E-score (-0.5 to 0.5)) turned out to be 0.495 in data set [1] and 0.484 in data set [2].
Turning to “GAGTCATC (double strand) [8-mer GAGTCATC]”, the binding signal (PBM E-score (-0.5 to 0.5)) was 0.497 in data set [1] and 0.492 in data set [2].
For “GATGACTA (double strand) [8-mer GATGACTA]”, the binding signal (PBM E-score (-0.5 to 0.5)) in data set [1] is 0.495.
“GGAGTCAC (double strand) [8-mer GGAGTCAC]” came in with a binding signal (PBM E-score (-0.5 to 0.5)) in data set [2] of 0.485.
“GTATACGA (double strand) [8-mer GTATACGA]”: the binding signal (PBM E-score (-0.5 to 0.5)) in data set [3] stood at 0.495; in data set [4] it was 0.492.
For “GTCGTATA (double strand) [8-mer GTCGTATA]” the same measures were 0.496 and 0.497.
With “GTCGTTTA (double strand) [8-mer GTCGTTTA]”, the binding signal (PBM E-score (-0.5 to 0.5)) in data set [3] is 0.494.
Regarding “GTGACTCA (double strand) [8-mer GTGACTCA]”, the binding signal (PBM E-score (-0.5 to 0.5)) came to 0.498 in data set [1] and 0.496 in data set [2].
For “GTGAGTCA (double strand) [8-mer GTGAGTCA]” the same measures were 0.498 and 0.494.
Take “TAAACGAA (double strand) [8-mer TAAACGAA]”: the binding signal (PBM E-score (-0.5 to 0.5)) in data set [3] worked out at 0.494.
In the case of “TATACGAA (double strand) [8-mer TATACGAA]”, the binding signal (PBM E-score (-0.5 to 0.5)) came to 0.495 in data set [3] and 0.494 in data set [4].
As to “TCGTATAA (double strand) [8-mer TCGTATAA]”, the results for the binding signal (PBM E-score (-0.5 to 0.5)) in data set [3] and in data set [4] were 0.497 and 0.498, respectively.
On to “TCGTTTAA (double strand) [8-mer TCGTTTAA]”, for which the binding signal (PBM E-score (-0.5 to 0.5)) in data set [3] was determined as 0.497; in data set [4], 0.494.
